The values below come from article PMC8133392.

Assay in all cases: other fluorescence titration
One experiment deals with H3K4ac peptide.
Experiment [1] has as its target unmodified H3 (aa 1–12) peptide (UniProt P68431).
For the next experiment, the target named is H3K4me3 peptide.

For “ZZEF1ZZ2 with H1877 replaced by tryptophan (for tryptophan fluorescence) (domain or fragment)”, the figures for the Kd (in the experiment with H3K4ac peptide; in experiment [1]; with H3K4me3 peptide) were 11 µM, 4.3 µM and 4.8 µM, respectively.
